Among the data in patent US6174679 are binding signal values, retold here.

The target of this series is T1, CIF150/hTAFII150 (Homo sapiens) (UniProt Q6P1X5).
T1 sequence: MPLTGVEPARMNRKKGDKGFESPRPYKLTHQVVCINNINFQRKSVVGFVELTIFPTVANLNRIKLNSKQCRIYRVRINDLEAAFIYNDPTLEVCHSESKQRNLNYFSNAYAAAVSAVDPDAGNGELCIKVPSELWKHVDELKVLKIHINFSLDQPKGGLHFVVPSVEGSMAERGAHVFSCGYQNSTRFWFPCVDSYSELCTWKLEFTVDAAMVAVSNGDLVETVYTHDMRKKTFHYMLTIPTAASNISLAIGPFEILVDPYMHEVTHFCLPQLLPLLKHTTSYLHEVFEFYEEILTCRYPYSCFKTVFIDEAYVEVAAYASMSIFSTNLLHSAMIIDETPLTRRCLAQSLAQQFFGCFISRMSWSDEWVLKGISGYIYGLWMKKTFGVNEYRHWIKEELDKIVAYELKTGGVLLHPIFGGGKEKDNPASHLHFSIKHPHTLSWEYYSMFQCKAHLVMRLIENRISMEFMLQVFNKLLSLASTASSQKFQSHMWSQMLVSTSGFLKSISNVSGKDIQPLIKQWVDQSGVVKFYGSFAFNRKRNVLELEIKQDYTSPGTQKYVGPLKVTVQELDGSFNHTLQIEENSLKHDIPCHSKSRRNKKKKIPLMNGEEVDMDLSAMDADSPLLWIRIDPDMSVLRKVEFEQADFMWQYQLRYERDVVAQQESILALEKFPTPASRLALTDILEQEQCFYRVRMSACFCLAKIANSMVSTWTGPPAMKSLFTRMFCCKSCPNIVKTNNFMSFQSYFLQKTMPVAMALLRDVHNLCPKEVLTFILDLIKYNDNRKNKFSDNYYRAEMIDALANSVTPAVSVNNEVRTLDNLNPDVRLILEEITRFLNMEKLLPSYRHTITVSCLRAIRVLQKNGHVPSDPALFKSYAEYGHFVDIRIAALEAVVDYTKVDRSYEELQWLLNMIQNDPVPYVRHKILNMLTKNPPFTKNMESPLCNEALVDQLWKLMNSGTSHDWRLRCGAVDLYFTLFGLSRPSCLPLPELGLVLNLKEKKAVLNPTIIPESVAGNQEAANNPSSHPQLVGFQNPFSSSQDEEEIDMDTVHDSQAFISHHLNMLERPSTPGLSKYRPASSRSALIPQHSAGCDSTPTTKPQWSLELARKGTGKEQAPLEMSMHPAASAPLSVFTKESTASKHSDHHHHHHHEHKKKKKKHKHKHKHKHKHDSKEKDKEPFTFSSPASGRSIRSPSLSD
Description: EMSA. The conditions noted are these: affinity improvement after selection (text gives both three and four rounds); dGdC competitor; supershifted by anti-CIF150 serum. A general note: Mobility shift assays separate free from complexed probe on a gel.

For “GAG (double strand) [selected CBE fragments with GAG core]”, the binding signal was 5 fold.
